The results in this text go back to IntAct's records for PubMed 25502805.

The chains are these.
B1: Emerin (Homo sapiens), P50402 (parent)
chain: MDNYADLSDTELTTLLRRYNIPHGPVVGSTRRLYEKKIFEYETQRRRLSPPSSSAASSYSFSDLNSTRGDADMYDLPKKEDALLYQSKGYNDDYYEESYFTTRTYGEPESAGPSRAVRQSVTSFPDADAFHHQVHDDDLLSSSEEECKDRERPMYGRDSAYQSITHYRPVSASRSSLDLSYYPTSSSTSFMSSSSSSSSWLTRRAIRPENRAPGAGLGQDRQVPLWGQLLLFLVFVIVLFFIYHFMQAEEGNPF
partner: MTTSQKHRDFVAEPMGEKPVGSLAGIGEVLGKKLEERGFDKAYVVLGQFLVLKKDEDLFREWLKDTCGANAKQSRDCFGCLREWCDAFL
B2: DNA mismatch repair protein Mlh1 (Homo sapiens), P40692 (parent)
chain: MSFVAGVIRRLDETVVNRIAAGEVIQRPANAIKEMIENCLDAKSTSIQVIVKEGGLKLIQIQDNGTGIRKEDLDIVCERFTTSKLQSFEDLASISTYGFRGEALASISHVAHVTITTKTADGKCAYRASYSDGKLKAPPKPCAGNQGTQITVEDLFYNIATRRKALKNPSEEYGKILEVVGRYSVHNAGISFSVKKQGETVADVRTLPNASTVDNIRSIFGNAVSRELIEIGCEDKTLAFKMNGYISNANYSVKKCIFLLFINHRLVESTSLRKAIETVYAAYLPKNTHPFLYLSLEISPQNVDVNVHPTKHEVHFLHEESILERVQQHIESKLLGSNSSRMYFTQTLLPGLAGPSGEMVKSTTSLTSSSTSGSSDKVYAHQMVRTDSREQKLDAFLQPLSKPLSSQPQAIVTEDKTDISSGRARQQDEEMLELPAPAEVAAKNQSLEGDTTKGTSEMSEKRGPTSSNPRKRHREDSDVEMVEDDSRKEMTAACTPRRRIINLTSVLSLQEEINEQGHEVLREMLHNHSFVGCVNPQWALAQHQTKLYLLNTTKLSEELFYQILIYDFANFGVLRLSEPAPLFDLAMLALDSPESGWTEEDGPKEGLAEYIVEFLKKKAEMLADYFSLEIDEEGNLIGLPLLIDNYVPPLEGLPIFILRLATEVNWDEEKECFESLSKECAMFYSIRKQYISEESTLSGQQSEVPGSIPNSWKWTVEHIVYKALRSHILPPKHFTEDGNILQLANLPDLYKVFERC
partner: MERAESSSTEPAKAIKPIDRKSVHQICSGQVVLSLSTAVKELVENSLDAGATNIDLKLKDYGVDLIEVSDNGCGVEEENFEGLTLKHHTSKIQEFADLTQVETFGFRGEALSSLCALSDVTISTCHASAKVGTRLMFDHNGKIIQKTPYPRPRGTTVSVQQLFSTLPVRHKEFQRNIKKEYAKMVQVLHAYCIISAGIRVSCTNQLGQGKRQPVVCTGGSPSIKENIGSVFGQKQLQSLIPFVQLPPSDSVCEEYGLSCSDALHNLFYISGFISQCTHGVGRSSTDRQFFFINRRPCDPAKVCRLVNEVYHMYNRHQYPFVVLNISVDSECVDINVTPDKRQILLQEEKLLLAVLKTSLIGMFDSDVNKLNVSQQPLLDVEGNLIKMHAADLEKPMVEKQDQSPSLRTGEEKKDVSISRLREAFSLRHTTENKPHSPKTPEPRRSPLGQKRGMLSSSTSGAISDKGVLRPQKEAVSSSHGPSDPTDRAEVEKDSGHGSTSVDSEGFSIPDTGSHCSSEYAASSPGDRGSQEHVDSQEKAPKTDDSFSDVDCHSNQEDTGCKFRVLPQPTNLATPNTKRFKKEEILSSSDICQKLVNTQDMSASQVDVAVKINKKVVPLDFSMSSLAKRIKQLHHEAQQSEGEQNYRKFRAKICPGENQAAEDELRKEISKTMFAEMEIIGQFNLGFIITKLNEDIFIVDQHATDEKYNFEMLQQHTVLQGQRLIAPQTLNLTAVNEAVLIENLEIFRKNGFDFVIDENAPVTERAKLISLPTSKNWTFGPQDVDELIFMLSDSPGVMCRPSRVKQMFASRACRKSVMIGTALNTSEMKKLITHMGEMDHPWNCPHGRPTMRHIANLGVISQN
B3: Mothers against decapentaplegic homolog 4 (Homo sapiens), Q13485 (parent)
chain: MDNMSITNTPTSNDACLSIVHSLMCHRQGGESETFAKRAIESLVKKLKEKKDELDSLITAITTNGAHPSKCVTIQRTLDGRLQVAGRKGFPHVIYARLWRWPDLHKNELKHVKYCQYAFDLKCDSVCVNPYHYERVVSPGIDLSGLTLQSNAPSSMMVKDEYVHDFEGQPSLSTEGHSIQTIQHPPSNRASTETYSTPALLAPSESNATSTANFPNIPVASTSQPASILGGSHSEGLLQIASGPQPGQQQNGFTGQPATYHHNSTTTWTGSRTAPYTPNLPHHQNGHLQHHPPMPPHPGHYWPVHNELAFQPPISNHPAPEYWCSIAYFEMDVQVGETFKVPSSCPIVTVDGYVDPSGGDRFCLGQLSNVHRTEAIERARLHIGKGVQLECKGEGDVWVRCLSDHAVFVQSYYLDREAGRAPGDAVHKIYPSAYIKVFDLRQCHRQMQQQAATAQAAAAAQAAAVAGNIPGPGSVGGIAPAISLSAAAGIGVDDLRRLCILRMSFVKGWGPDYPRQSIKETPCWIEIHLHRALQLLDEVLHTMPIADPQPLD
partner: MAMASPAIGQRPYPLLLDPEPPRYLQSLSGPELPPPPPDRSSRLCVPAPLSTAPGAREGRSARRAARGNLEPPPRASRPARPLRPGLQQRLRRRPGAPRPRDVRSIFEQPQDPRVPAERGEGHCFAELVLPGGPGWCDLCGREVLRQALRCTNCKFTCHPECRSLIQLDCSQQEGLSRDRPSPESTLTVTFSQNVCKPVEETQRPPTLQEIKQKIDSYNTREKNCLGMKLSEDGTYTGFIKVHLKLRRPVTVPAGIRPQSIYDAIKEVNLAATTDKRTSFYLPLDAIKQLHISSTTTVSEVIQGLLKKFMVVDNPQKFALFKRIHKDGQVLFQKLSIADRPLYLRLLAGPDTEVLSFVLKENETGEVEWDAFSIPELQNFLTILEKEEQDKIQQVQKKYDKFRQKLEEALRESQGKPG
B4: Scaffold protein ILK (Homo sapiens), Q13418 (parent)
chain: MDDIFTQCREGNAVAVRLWLDNTENDLNQGDDHGFSPLHWACREGRSAVVEMLIMRGARINVMNRGDDTPLHLAASHGHRDIVQKLLQYKADINAVNEHGNVPLHYACFWGQDQVAEDLVANGALVSICNKYGEMPVDKAKAPLRELLRERAEKMGQNLNRIPYKDTFWKGTTRTRPRNGTLNKHSGIDFKQLNFLTKLNENHSGELWKGRWQGNDIVVKVLKVRDWSTRKSRDFNEECPRLRIFSHPNVLPVLGACQSPPAPHPTLITHWMPYGSLYNVLHEGTNFVVDQSQAVKFALDMARGMAFLHTLEPLIPRHALNSRSVMIDEDMTARISMADVKFSFQCPGRMYAPAWVAPEALQKKPEDTNRRSADMWSFAVLLWELVTREVPFADLSNMEIGMKVALEGLRPTIPPGISPHVCKLMKICMNEDPAKRPKFDMIVPILEKMQDK
partner: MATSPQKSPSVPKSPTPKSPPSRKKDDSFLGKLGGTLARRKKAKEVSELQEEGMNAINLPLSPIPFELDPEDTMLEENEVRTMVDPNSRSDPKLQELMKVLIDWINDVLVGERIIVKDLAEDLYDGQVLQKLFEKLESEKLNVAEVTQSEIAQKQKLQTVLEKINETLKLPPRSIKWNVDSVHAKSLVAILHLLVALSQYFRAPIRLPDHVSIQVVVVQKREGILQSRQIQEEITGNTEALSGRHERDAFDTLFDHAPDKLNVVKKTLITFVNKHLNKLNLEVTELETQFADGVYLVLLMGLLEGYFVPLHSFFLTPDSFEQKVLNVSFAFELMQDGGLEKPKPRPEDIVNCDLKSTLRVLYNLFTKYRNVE
B5: Actin nucleation-promoting factor WAS (Homo sapiens), P42768 (parent)
chain: MSGGPMGGRPGGRGAPAVQQNIPSTLLQDHENQRLFEMLGRKCLTLATAVVQLYLALPPGAEHWTKEHCGAVCFVKDNPQKSYFIRLYGLQAGRLLWEQELYSQLVYSTPTPFFHTFAGDDCQAGLNFADEDEAQAFRALVQEKIQKRNQRQSGDRRQLPPPPTPANEERRGGLPPLPLHPGGDQGGPPVGPLSLGLATVDIQNPDITSSRYRGLPAPGPSPADKKRSGKKKISKADIGAPSGFKHVSHVGWDPQNGFDVNNLDPDLRSLFSRAGISEAQLTDAETSKLIYDFIEDQGGLEAVRQEMRRQEPLPPPPPPSRGGNQLPRPPIVGGNKGRSGPLPPVPLGIAPPPPTPRGPPPPGRGGPPPPPPPATGRSGPLPPPPPGAGGPPMPPPPPPPPPPPSSGNGPAPPPLPPALVPAGGLAPGGGRGALLDQIRQGIQLNKTPGAPESSALQPPPQSSEGLVGALMHVMQKRSRAIHSSDEGEDQAGDEDEDDEWDD
B6: Cyclin-dependent kinase 4 inhibitor C (Homo sapiens), P42773 (parent)
chain: MAEPWGNELASAAARGDLEQLTSLLQNNVNVNAQNGFGRTALQVMKLGNPEIARRLLLRGANPDLKDRTGFAVIHDAARAGFLDTLQTLLEFQADVNIEDNEGNLPLHLAAKEGHLRVVEFLVKHTASNVGHRNHKGDTACDLARLYGRNEVVSLMQANGAGGATNLQ

The variants in the first experiment derive from B1. To be noted: with baf_human BANF1, O75531.
As for MDNYADLSDTELTTLLRRYNIPHGPVVGSTRRLYEKKIFEYETQRRRLSPPSSFAASSYSFSDLNSTRGDADMYDLPKKEDALLYQSKGYNDDYYEESYFTTRTYGEPESAGPSRAVRQSVTSFPDADAFHHQVHDDDLLSSSEEECKDRERPMYGRDSAYQSITHYRPVSASRSSLDLSYYPTSSSTSFMSSSSSSSSWLTRRAIRPENRAPGAGLGQDRQVPLWGQLLLFLVFVIVLFFIYHFMQAEEGNPF [S54F], the “effect of a mutation on the interaction” value is given as “with no effect”.

In another experiment the parent is B2. To be noted: with pms2_human PMS2, P54278.
For I107R, the “effect of a mutation on the interaction” value was “disrupting interaction strength”.

The variants in a further experiment derive from B3. As to conditions: with rasf5_human RASSF5, Q8WWW0.
As for N13S, the “effect of a mutation on the interaction” value is “with no effect”.

As to Y353S, the “effect of a mutation on the interaction” value is listed as “with no effect”.

Turning to R361C, the “effect of a mutation on the interaction” value is on record as “with no effect”.

The variants in another experiment derive from B4. As to conditions: with parva_human PARVA.
In the case of MDDIFTQCREGNAVAVRLWLDNTENDLNQGDDHGFSPLHWACREGRSAVVEMLIMRGARINVMNRGDDTPLHLAASHGHRDIVQKLLQYKADINAVNEHGNVPLHYACFWGQDQVAEDLVANGALVSICNKYGEMPVDKAKAPLRELLRERAEKMGQNLNRIPYKDTFWKGTTRTRPRNGTLNKHSGIDFKQLNFLTKLNENHSGELWKGRWQGNDIVVKVLKVRDWSTRKSRDFNEECPRLRIFSHPNVLPVLGACQSPPVPHPTLITHWMPYGSLYNVLHEGTNFVVDQSQAVKFALDMARGMAFLHTLEPLIPRHALNSRSVMIDEDMTARISMADVKFSFQCPGRMYAPAWVAPEALQKKPEDTNRRSADMWSFAVLLWELVTREVPFADLSNMEIGMKVALEGLRPTIPPGISPHVCKLMKICMNEDPAKRPKFDMIVPILEKMQDK [A262V], the “effect of a mutation on the interaction” value is “with no effect”.

The variants in another experiment derive from B5. As to conditions: with cdc42_human CDC42, P60953.
Chain of cdc42_human CDC42, P60953 (P60953 whole entry, looked up): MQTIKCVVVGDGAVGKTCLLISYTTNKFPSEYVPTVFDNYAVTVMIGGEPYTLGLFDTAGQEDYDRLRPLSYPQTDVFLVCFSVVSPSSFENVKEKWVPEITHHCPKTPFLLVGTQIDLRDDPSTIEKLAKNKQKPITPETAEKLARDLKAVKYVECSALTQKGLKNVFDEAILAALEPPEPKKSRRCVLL
As to MSGGPMGGRPGGRGAPAVQQNIPSTLLQDHENQRLFEMLGRKCLTLATAVVQLYLALPPGAEHWTKEHCGAVCFVKDNPQKSYFIRLYGLQAGRLLWEQELYSQLVYSTPTPFFHTFAGDDCQAGLNFADEDEAQAFRALVQEKIQKRNQRQSGDRRQLPPPPTPANEERRGGLPPLPLHPGGDQGGPPVGPLSLGLATVDIQNPDITSSRYRGLPAPGPSPADKKRSGKKKISKADIGAPSGFKHVSHVGWDPQNGFDVNNLDPDLRSLFSRAGISEAQLTDAETSKLIYDFTEDQGGLEAVRQEMRRQEPLPPPPPPSRGGNQLPRPPIVGGNKGRSGPLPPVPLGIAPPPPTPRGPPPPGRGGPPPPPPPATGRSGPLPPPPPGAGGPPMPPPPPPPPPPPSSGNGPAPPPLPPALVPAGGLAPGGGRGALLDQIRQGIQLNKTPGAPESSALQPPPQSSEGLVGALMHVMQKRSRAIHSSDEGEDQAGDEDEDDEWDD [I294T], the “effect of a mutation on the interaction” value is “disrupting interaction strength”.

Regarding MSGGPMGGRPGGRGAPAVQQNIPSTLLQDHENQRLFEMLGRKCLTLATAVVQLYLALPPGAEHWTKEHCGAVCFVKDNPQKSYFIRLYGLQAGRLLWEQELYSQLVYSTPTPFFHTFAGDDCQAGLNFADKDEAQAFRALVQEKIQKRNQRQSGDRRQLPPPPTPANEERRGGLPPLPLHPGGDQGGPPVGPLSLGLATVDIQNPDITSSRYRGLPAPGPSPADKKRSGKKKISKADIGAPSGFKHVSHVGWDPQNGFDVNNLDPDLRSLFSRAGISEAQLTDAETSKLIYDFIEDQGGLEAVRQEMRRQEPLPPPPPPSRGGNQLPRPPIVGGNKGRSGPLPPVPLGIAPPPPTPRGPPPPGRGGPPPPPPPATGRSGPLPPPPPGAGGPPMPPPPPPPPPPPSSGNGPAPPPLPPALVPAGGLAPGGGRGALLDQIRQGIQLNKTPGAPESSALQPPPQSSEGLVGALMHVMQKRSRAIHSSDEGEDQAGDEDEDDEWDD [E131K], the “effect of a mutation on the interaction” value was “with no effect”.

The variants in a further experiment derive from B6. As to conditions: with cdk6_human CDK6, Q00534.
Chain of cdk6_human CDK6, Q00534 (Q00534 whole entry): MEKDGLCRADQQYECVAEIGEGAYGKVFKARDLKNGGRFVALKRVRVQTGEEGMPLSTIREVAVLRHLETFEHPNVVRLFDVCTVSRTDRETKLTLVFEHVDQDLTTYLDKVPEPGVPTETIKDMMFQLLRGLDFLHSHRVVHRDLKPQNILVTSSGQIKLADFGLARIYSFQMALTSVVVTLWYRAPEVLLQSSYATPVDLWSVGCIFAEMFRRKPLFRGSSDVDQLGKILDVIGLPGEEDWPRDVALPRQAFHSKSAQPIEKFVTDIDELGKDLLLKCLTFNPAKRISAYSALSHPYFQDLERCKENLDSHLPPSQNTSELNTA
MAEPWGNELASAAARGDLEQLTSLLQNNVNLNAQNGFGRTALQVMKLGNPEIARRLLLRGANPDLKDRTGFAVIHDAARAGFLDTLQTLLEFQADVNIEDNEGNLPLHLAAKEGHLRVVEFLVKHTASNVGHRNHKGDTACDLARLYGRNEVVSLMQANGAGGATNLQ: the “effect of a mutation on the interaction” value was “with no effect”.
